{
  "source": "patent USRE46170E1",
  "about": "“Insulin derivatives” (Novo Nordisk A/S, priority 2005, dated 2016)",
  "key": {"[1]": {"test": "Hydrophobicity (hydrophobic index) relative to human insulin by isocratic RP-HPLC", "type": "physicochemical", "conditions": "LiChrosorb RP18 column, isocratic elution at 40° C., sodium phosphate buffer pH 7.3/acetonitrile", "experimental": "The elution was monitored by following the UV absorption of the eluate at 214 nm. Void time, t0, was found by injecting 0.1 mM sodium nitrate."}, "human insulin receptor": {"target": "human insulin receptor (Homo sapiens, UniProt P06213)", "sequence (P06213 28-746 isoform P06213-2 limits assumed)": "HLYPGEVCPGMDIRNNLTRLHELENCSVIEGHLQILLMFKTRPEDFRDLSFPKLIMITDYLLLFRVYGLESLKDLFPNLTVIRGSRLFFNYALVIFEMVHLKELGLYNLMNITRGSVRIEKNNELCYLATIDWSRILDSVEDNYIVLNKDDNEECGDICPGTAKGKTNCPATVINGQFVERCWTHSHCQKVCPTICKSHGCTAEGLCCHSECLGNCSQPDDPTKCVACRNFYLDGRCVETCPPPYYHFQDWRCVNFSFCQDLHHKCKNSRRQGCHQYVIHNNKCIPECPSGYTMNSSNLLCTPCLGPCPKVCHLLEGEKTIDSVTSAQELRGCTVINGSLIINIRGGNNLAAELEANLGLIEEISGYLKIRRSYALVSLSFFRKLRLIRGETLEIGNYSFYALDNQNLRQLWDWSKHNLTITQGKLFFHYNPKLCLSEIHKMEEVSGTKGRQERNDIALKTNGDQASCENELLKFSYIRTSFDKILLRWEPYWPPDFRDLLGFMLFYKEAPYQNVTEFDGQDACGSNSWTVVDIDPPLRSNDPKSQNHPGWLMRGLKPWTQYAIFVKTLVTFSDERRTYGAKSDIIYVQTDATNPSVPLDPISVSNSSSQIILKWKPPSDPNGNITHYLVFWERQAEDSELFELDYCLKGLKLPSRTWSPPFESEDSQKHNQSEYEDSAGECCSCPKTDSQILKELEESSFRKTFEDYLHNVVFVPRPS", "sequence (P06213 763-1382 partner limits assumed)": "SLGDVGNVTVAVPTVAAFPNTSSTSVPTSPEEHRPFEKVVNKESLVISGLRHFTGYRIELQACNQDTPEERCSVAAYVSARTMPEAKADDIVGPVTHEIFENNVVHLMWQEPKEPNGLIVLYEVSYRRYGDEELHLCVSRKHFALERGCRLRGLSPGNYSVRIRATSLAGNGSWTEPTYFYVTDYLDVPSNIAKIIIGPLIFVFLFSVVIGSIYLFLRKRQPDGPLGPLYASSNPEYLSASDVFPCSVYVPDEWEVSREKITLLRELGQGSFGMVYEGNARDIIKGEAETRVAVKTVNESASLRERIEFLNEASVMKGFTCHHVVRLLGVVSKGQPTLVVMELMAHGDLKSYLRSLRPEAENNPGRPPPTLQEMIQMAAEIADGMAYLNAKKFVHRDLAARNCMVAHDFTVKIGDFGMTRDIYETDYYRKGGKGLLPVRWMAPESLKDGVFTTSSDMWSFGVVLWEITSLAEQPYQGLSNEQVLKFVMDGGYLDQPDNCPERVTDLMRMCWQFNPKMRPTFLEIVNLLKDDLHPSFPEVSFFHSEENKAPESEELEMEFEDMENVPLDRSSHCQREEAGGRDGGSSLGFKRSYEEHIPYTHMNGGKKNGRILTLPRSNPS", "test": "Insulin receptor binding, SPA microtiterplate antibody capture assay", "conditions": "purified recombinant human insulin receptor - exon 11; A14 Tyr[125I]-human insulin tracer; 16 hours incubation", "experimental": "SPA-PVT antibody-binding beads, anti-mouse reagent (Amersham Biosciences, Cat No. PRNQ0017) were mixed with 25 ml of binding buffer (100 mM HEPES pH 7.8; 100 mM sodium chloride, 10 mM MgSO4, 0.025% Tween-20). […] A total of 100 μl was then added and a dilution series is made from appropriate samples. To the dilution series was then added 100 μl of reagent mix and the samples were incubated for 16 hours while gently shaken. The phases were the then separated by centrifugation for 1 min and the plates counted in a Topcounter. The binding data were fitted using the nonlinear regression algorithm in the GraphPad Prism 2.01 (GraphPad Software, San Diego, Calif.)."}},
  "data": [
    {"substance": "N^εB29-4-{[(2-Carboxyethyl)-(15-carboxypentadecanoyl)amino]methyl}benzoyl)-γ-L-glutamyl desB30 human insulin [Example 20]", "values": [
      {"measurement": "k′rel", "setting": "[1]", "result": 0.399}
    ]},
    {"substance": "N^εB29-10-(4-Carboxyphenoxy)decanoyl beta-Asp desB30 insulin [Example 25]", "values": [
      {"measurement": "k′rel", "setting": "[1]", "result": 0.348},
      {"measurement": "Receptor binding (% of human insulin)", "setting": "human insulin receptor", "result": "42 % of human insulin"}
    ]},
    {"substance": "N^εB29-10-(4-carboxyphenylsulfanyl)decanoyl-γ-L-glutamyl desB30 human insulin [Example 23]", "values": [
      {"measurement": "k′rel", "setting": "[1]", "result": 0.475},
      {"measurement": "Receptor binding (% of human insulin)", "setting": "human insulin receptor", "result": "101 % of human insulin"}
    ]},
    {"substance": "N^εB29-11-(4-Carboxy-phenoxy) undecanoyl γ-L-glutamyl desB30 insulin [Example 26]", "values": [
      {"measurement": "k′rel", "setting": "[1]", "result": 0.482},
      {"measurement": "Receptor binding (% of human insulin)", "setting": "human insulin receptor", "result": "55 % of human insulin"}
    ]},
    {"substance": "N^εB29-(3-Carboxy-4-(14-carboxytetradecyloxy)benzoyl) desB30 human insulin [Example 12]", "values": [
      {"measurement": "k′rel", "setting": "[1]", "result": 1.51}
    ]},
    {"substance": "N^εB29-(3-Carboxy-5-(14-carboxytetradecyloxy)benzoyl) desB30 human insulin [Example 13]", "values": [
      {"measurement": "k′rel", "setting": "[1]", "result": 1.175}
    ]},
    {"substance": "N^εB29-(3-Carboxy-5-hexadecandioylaminobenzoyl) des(B30)insulin [Example 9]", "values": [
      {"measurement": "k′rel", "setting": "[1]", "result": 1.7},
      {"measurement": "Receptor binding (% of human insulin)", "setting": "human insulin receptor", "result": "12 % of human insulin"}
    ]},
    {"substance": "N^εB29-(3-Carboxy-5-octadecandioylaminobenzoyl) des(B30) human insulin [Example 10]", "values": [
      {"measurement": "k′rel", "setting": "[1]", "result": 2.97},
      {"measurement": "Receptor binding (% of human insulin)", "setting": "human insulin receptor", "result": "19 % of human insulin"}
    ]},
    {"substance": "N^εB29-(3-carboxy-4-hexdecandioylaminobenzoyl) desB30 human insulin [Example 22]", "values": [
      {"measurement": "k′rel", "setting": "[1]", "result": 1.075}
    ]},
    {"substance": "N^εB29-[3-Carboxy-5-(octadecandioyl-N-carboxyethylglycin)aminobenzoyl] desB30 human insulin [Example 15]", "values": [
      {"measurement": "k′rel", "setting": "[1]", "result": 0.662}
    ]},
    {"substance": "N^εB29-[(5-{[(2-Carboxyethyl)-(15-carboxypentadecanoyl)amino]methyl}furan-2-carbonyl)desB30 human insulin [Example 5]", "values": [
      {"measurement": "k′rel", "setting": "[1]", "result": 1.19},
      {"measurement": "Receptor binding (% of human insulin)", "setting": "human insulin receptor", "result": "13 % of human insulin"}
    ]},
    {"substance": "N^εB29-{4-Carboxy-4-[10-(4-carboxy-phenoxy)-decanoylamino]-butyryl}desB30 human insulin [Example 14]", "values": [
      {"measurement": "k′rel", "setting": "[1]", "result": 0.388},
      {"measurement": "Receptor binding (% of human insulin)", "setting": "human insulin receptor", "result": "46 % of human insulin"}
    ]},
    {"substance": "N^εB29-{4-[2-(4-carboxymethylphenyl)ethyl]phenyl}acetyl-γ-L-glutamyl desB30 human insulin [Example 21]", "values": [
      {"measurement": "k′rel", "setting": "[1]", "result": 0.291}
    ]},
    {"substance": "N^εB29-ω-carboxypentadecanoyl-(4-aminomethylbenzoyl)-γ-L-glutamyl desB30 human insulin [Example 18]", "values": [
      {"measurement": "k′rel", "setting": "[1]", "result": 1.18}
    ]},
    {"substance": "N^εB29-ω-carboxypentadecanoyl-γ-L-glutamyl 4-aminomethyl-benzoyl) desB30 human insulin [Example 11]", "values": [
      {"measurement": "k′rel", "setting": "[1]", "result": 1.12},
      {"measurement": "Receptor binding (% of human insulin)", "setting": "human insulin receptor", "result": "14 % of human insulin"}
    ]},
    {"substance": "N^εB29{3-[(3,5-Bis-carboxymethoxy-benzyl)-(15-carboxypentadecanoyl)amino]-propionyl desB30 human insulin [Example 16]", "values": [
      {"measurement": "k′rel", "setting": "[1]", "result": 0.45}
    ]},
    {"substance": "N^εB29—N—(HOOC(CH2)15CO)—N-(carboxyethyl)-CH2-para-C6H4CO] desB30 human insulin [Example 4]", "values": [
      {"measurement": "k′rel", "setting": "[1]", "result": 1.23}
    ]},
    {"substance": "N^εB29—N—(HOOC(CH2)16CO)—N(carboxyethyl)-CH2-para-C6H4CO] desB30 human insulin [Example 3]", "values": [
      {"measurement": "k′rel", "setting": "[1]", "result": 2.03},
      {"measurement": "Receptor binding (% of human insulin)", "setting": "human insulin receptor", "result": "15 % of human insulin"}
    ]},
    {"substance": "N^εB29—[N—(HOOC(CH2)13CO)—N-(carboxyethyl)-CH2-para-C6H4CO] desB30 human insulin [Example 2]", "values": [
      {"measurement": "k′rel", "setting": "[1]", "result": 0.81},
      {"measurement": "Receptor binding (% of human insulin)", "setting": "human insulin receptor", "result": "28 % of human insulin"}
    ]},
    {"substance": "N^εB29—[N—(HOOC(CH2)14CO)—N-(carboxyethyl)-para-C6H4CO] desB30 human insulin [Example 8]", "values": [
      {"measurement": "k′rel", "setting": "[1]", "result": 1.08},
      {"measurement": "Receptor binding (% of human insulin)", "setting": "human insulin receptor", "result": "17 % of human insulin"}
    ]},
    {"substance": "N^εB29—[N—HOOC(CH2)14CO)—N-(carboxethyl)-CH2-ortho C6H4CO] desB30 human insulin [Example 7]", "values": [
      {"measurement": "k′rel", "setting": "[1]", "result": 0.905},
      {"measurement": "Receptor binding (% of human insulin)", "setting": "human insulin receptor", "result": "11 % of human insulin"}
    ]},
    {"substance": "N^εB29—[N—HOOC(CH2)14CO)—N-(carboxyethyl)-CH2-para-C6H4CO] desB30 human insulin [Example 1]", "values": [
      {"measurement": "Receptor binding (% of human insulin)", "setting": "human insulin receptor", "result": "18 % of human insulin"}
    ]}
  ]
}
